Data as given in CN113583112A.

How the values were obtained:
[1] = molecular target: AAVXL32.1蛋白衣壳; test: BLI (Fortebio), mAb002 on protein G biosensor, antigen at 1.13 nM
[2] = molecular target: AAVXL32.1蛋白衣壳; test: BLI (Fortebio), mAb002 on protein G biosensor, antigen at 2.25 nM
[3] = molecular target: AAVXL32.1蛋白衣壳; test: BLI (Fortebio), mAb002 on protein G biosensor, antigen at 0.0703 nM
[4] = molecular target: AAVXL32.1蛋白衣壳; test: BLI (Fortebio), mAb002 on protein G biosensor, antigen at 0.1406 nM
[5] = molecular target: AAVXL32.1蛋白衣壳; test: BLI (Fortebio), mAb002 on protein G biosensor, antigen at 0.2813 nM
[6] = molecular target: AAVXL32.1蛋白衣壳; test: BLI (Fortebio), mAb002 on protein G biosensor, antigen at 0.5625 nM
[7] = molecular target: AAVXL32.1蛋白衣壳; test: BLI (Fortebio), mAb002 2 ug/ml on protein G biosensor, antigen at 1.13 nM in PBS
[8] = molecular target: AAVXL32.1蛋白衣壳; test: BLI (Fortebio), mAb002 2 ug/ml on protein G biosensor, antigen at 2.25 nM in PBS
[9] = molecular target: AAVXL32.1蛋白衣壳; test: BLI (Fortebio), mAb002 2 ug/ml on protein G biosensor, antigen at 0.0703 nM in PBS
[10] = molecular target: AAVXL32.1蛋白衣壳; test: BLI (Fortebio), mAb002 2 ug/ml on protein G biosensor, antigen at 0.1406 nM in PBS
[11] = molecular target: AAVXL32.1蛋白衣壳; test: BLI (Fortebio), mAb002 2 ug/ml on protein G biosensor, antigen at 0.2813 nM in PBS
[12] = molecular target: AAVXL32.1蛋白衣壳; test: BLI (Fortebio), mAb002 2 ug/ml on protein G biosensor, antigen at 0.5625 nM in PBS

B1: mAb002抗体 (antibody, V domains shown)
VH: QVQLQQPGAELVRPGTSVKLSCKASGYTFISYWMHWVKQRPGQGLEWIGVIDPSDSYTNYNQKFKGKATLTVDTSSSTAYMQLSSLTSEDSAVYYCARYYYGSSRYFDVWGTGTTVTVSS
VL: YIQMTQTTSSLSASLGDRVTISCRASQDISNYLNWYQQKPDGTVKVLIYYTSRLHSGVPSRFSGSGSGTDYSLTISNLEQEDIATYFCQQSYTLPWTFGGGTKLEIK
Question: For B1, which Kd [1] is on record?
Answer: Its Kd is < 1 pM.

Question: What about the koff [1] of the same binder?
Answer: Its koff is < 1e-07 s⁻¹.

Question: What about the kon [1] of the same binder?
Answer: Its kon is 3.26e+06 M⁻¹ s⁻¹.

Question: What about the Kd [2] of the same binder?
Answer: The Kd was < 1 pM.

Question: What about the koff [2] of the same binder?
Answer: The koff was < 1e-07 s⁻¹.

Question: And the kon [2]?
Answer: The kon was 3.26e+06 M⁻¹ s⁻¹.

Question: What about the Kd [3] of the same binder?
Answer: Its Kd is < 1 pM.

Question: And the koff [3]?
Answer: The koff was < 1e-07 s⁻¹.

Question: And the kon [3]?
Answer: The kon was 3.26e+06 M⁻¹ s⁻¹.

Question: What about the Kd [4] of the same binder?
Answer: Its Kd is < 1 pM.

Question: What about the koff [4] of the same binder?
Answer: Its koff is < 1e-07 s⁻¹.

Question: And the kon [4]?
Answer: Its kon is 3.26e+06 M⁻¹ s⁻¹.

Question: And the Kd [5]?
Answer: The Kd was < 1 pM.

Question: What about the koff [5] of the same binder?
Answer: The koff was < 1e-07 s⁻¹.

Question: And the kon [5]?
Answer: Its kon is 3.26e+06 M⁻¹ s⁻¹.

Question: And the Kd [6]?
Answer: The Kd was < 1 pM.

Question: And the koff [6]?
Answer: Its koff is < 1e-07 s⁻¹.

Question: And the kon [6]?
Answer: The kon was 3.26e+06 M⁻¹ s⁻¹.

Question: What about the 响应 [7] of the same binder?
Answer: The 响应 was 4.83.

Question: And the 响应 [8]?
Answer: The 响应 was 5.91.

Question: And the 响应 [9]?
Answer: The 响应 was 0.338.

Question: What about the 响应 [10] of the same binder?
Answer: The 响应 was 0.701.

Question: What about the 响应 [11] of the same binder?
Answer: Its 响应 is 1.4.

Question: And the 响应 [12]?
Answer: The 响应 was 2.68.
